The RNAGym collection of RNA variant scans (doi:10.1073/pnas.2313332121)

B1: TPR t1 (parent)
chain: GACCAAUCUGCCCUCAGAGCUCGAGAACAUCUUCGGAUGCAGAGGAGGCAGGCUUCGGUGGCGCGAUAGCGCCAACGUCCUCAACCUCCAAUGCAUCCCACCACAUGAUGAUGCCUGAAGAGCCUUGGUUUUUUG

Variants of: B1
Assay: polymerase ribozyme fitness, log enrichment relative to wild type (log ratio); higher = more active; in vitro selection for triplet polymerase activity
Procedure, shortened: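 In triplicate, a single round of in vitro selection was run on each mutant library, PCR-built and transcribed, covering one subunit of a heterodimeric triplet polymerase ribozyme. Frozen incubation at −7 °C followed annealing with a biotinylated primer, partner subunit and triplets, and extended constructs were then gel-excised, streptavidin-captured and taken through RT-PCR. Fitness is the logarithm of genotype enrichment over wild-type enrichment, from inverse-variance-weighted replicate averages of Illumina-sequenced inputs and outputs. […] only genotypes with ≥10 input reads and ≥1 read per output were kept.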

| Variant | polymerase ribozyme fitness (log ratio) |
| --- | --- |
| A43U C62G U112G G113C G122U | -6.69 |
| G44A C82U C101G | -2.82 |
| A43G C97U | -1.61 |
| G44A C124U | 0.684 |
| G44A U78G | -1.09 |
| G44A A75U | -1.11 |
| G44A C86G U96A | -3.83 |
| G44A G113C | -3.16 |
| G44C U106G G110A A119G | -4.41 |
| G44A G51A C80U C86A C124G | -0.462 |
| G44A U92G | -3.27 |
| G44C U106C | -0.754 |
| A43G C72U | -0.99 |
| A43G C72G | -1.52 |
| G44A C70U A83G U96C G110U | -6.41 |
| G44A G48U U125G | -2.23 |
| G44A G61C U78C C79G U112G U133G | -3.14 |
| G44A C72A C98U G110A | -4.64 |
| G44U A46U | -1.83 |
| G44C C64U | -0.652 |
| G44C C72U A100C | -2.51 |
| A43U G47U A74U | -2.98 |
| A43G U133G | -1.7 |
| G44C G69U A75G C79U U87A C97U G135U | -5.55 |

| Variant | polymerase ribozyme fitness (log ratio) |
| --- | --- |
| G44A C53U U125G | -2.16 |
| A43U C85G A95C U112C | -2.22 |
| G44A G60C C114A | -2.55 |
| G44C C73U U112G G120U G127C | -5.16 |
| G44U A66U | -2.13 |
| G44A C64U G128C U132C | -2.96 |
| G44A U55A C70U C85G G113A | -4.29 |
| G44A G93A | -1.2 |
| G44A G93C | -2.23 |
| G44A G51U A68G A121G | -5.63 |
| A43U A74G | -1.55 |
| A43U A66G | -3.64 |
| G44A C53U C82U G117A C124A | -1.14 |
| A43G G117U | -4.21 |
| A43G G58A C85U U112C | -1.68 |
| A43U C76U C123G | -0.376 |
| G44A G63A G122A | -2.73 |
| G44C G58A A91G U92C | -3.08 |
| G44A C56U A84C G120C | -0.295 |
| G44A A66G | -1.89 |
| A43U G48U C56G U116A | -6.74 |
| A43U A46U G47U G117U | -7.8 |
| G44C C85U G117A C124A U125C | -1.55 |
| A43U A66C G71U | -5.02 |

| Variant | polymerase ribozyme fitness (log ratio) |
| --- | --- |
| G44C C72U A75C U92G | -2.94 |
| G44A C72G A119G U125C | -2.76 |
| G44A C72G C114A A121U G127C | -2.5 |
| A43U C72A | -1.26 |
| A43U A118U | -1.23 |
| A43U G113C | -3.56 |
| G44A U109G | -5.09 |
| A43U G57U C86A | -2.97 |
| A43U C102U | -3.44 |
| A43U G48C G57A C89U U106C | -2.94 |
| A43U U87A G117A | -3.08 |
| G44A C99U | -4.58 |
| G44C A46U G58A G117A U130G | -3.81 |
| A43U C88A U109A | -6.37 |
| G44A C64A C76A | -6.8 |
| A43U U59A A66U | -4.54 |
| A43U C73U U92G G113A | -2.84 |
| A43U C72A C114U G128C | -5.92 |
| G44U A83C | -1.34 |
| G44A G51C C62G C85G G110C | -7.25 |
| G44C C62A U132C | -2.12 |
| A43U C114G | -3.27 |
| G44A G61U C99U | -4.04 |
| G44A G71A U87G A90C G135U | -2.38 |

| Variant | polymerase ribozyme fitness (log ratio) |
| --- | --- |
| A43U U81A C85G | -3.37 |
| A43U G120A | -0.64 |
| A43G C70G G110U | -5.99 |
| G44U A68G U92A A119U C124U | -6.31 |
| G44A C89U C114G G127U U132A | -3.64 |
| G44A C79A U125A | -3.2 |
| G44C G47A C73G | -2.76 |
| A43U U54A A66U U112A | -3.74 |
| A43G C53A U109A A119G | -5.89 |
| G44A U129A | -1.83 |
| A43U C79U | -0.702 |
| G44C G69A | -4.37 |
| G44C C53U G61U C124U | 0.752 |
| G44A C72G C123A | -1.13 |
| G44A C53A | 0.047 |
| G44A G69A C94U | -4.26 |
| G44A A84U | -0.594 |
| A43G G69U C89U | -0.177 |
| A43U A46C C115U U116C | -2.39 |
| G44A G48C G60U | -0.957 |
| A43U C56G U67A G69U G71C A75G C101A G107C C124G | -7.81 |
| A43G G128A | -3.36 |
| A43G G128U | -4.43 |
| G44A A75U A118G | -1.19 |

| Variant | polymerase ribozyme fitness (log ratio) |
| --- | --- |
| G44C U92G U106A U116A | -6.02 |
| A43U G63A A95G G120U G128U | -4.88 |
| A43U C49U A75U G113C C123U | -3.62 |
| G44A G60C A111U | -5.02 |
| A43U C88G A95U | -3.19 |
| G44C C88G G117A C123G | -2.7 |
| A43U G48U U54C C89U U112A | -0.663 |
| A43G C53G G69C | -2.9 |
| A43U A83U | -1.8 |
| A43G G69C | -2.38 |
| G44C U112G | -1.07 |
| G44C U116C C124A | -0.551 |
| G44A A90U | -1.45 |
| G44A G45U G93A | -3.07 |
| A43G G69C A90C | -2.1 |
| G44A G57U C85U C104A U109A G120C | -4.62 |
| A43U G58U C62U A74C | -2.24 |
| A43G U54C A95U A121C U129A | -2.96 |
| G44A A118U | -0.0596 |
| G44A A118G | -1.56 |
| A43G G60A | -2.12 |
| G44C G45A G61U U78G | -4.37 |
| G44A G69U C104A | -1.28 |
| A43G G63A | -3.39 |

| Variant | polymerase ribozyme fitness (log ratio) |
| --- | --- |
| G44A G69C C89U A118U C124G G127C | -0.292 |
| A43U U81A C85G C124U | -4.75 |
| A43G G71A C82A G120U A121C | -3.35 |
| A43U U59A G60U | -1.17 |
| G44U C49A A50C G71A | -5.27 |
| A43U G45U | -1.71 |
| G44C C73U C86U U96G U129C | -2.46 |
| A43U C49G G135U | -3.89 |
| G44U A90U G135U | -2.19 |
| A43U G93U U112A G127C | -2.82 |
| A43G G63C U96C | -2.76 |
| A43G G60U U78C | -2.18 |
| G44A G71U | -1.33 |
| G44C U81C U106A | -0.434 |
| G44C U92C C124A | 0.556 |
| G44A A111U | -4.79 |
| G44A C56U C123U G135U | -0.56 |
| G44A G122A G127C | -2.85 |
| A43U G69C C115A C124U | -3.09 |
| A43U C53A U129A | -4.05 |
| G44A G48C C102U C124A | -1.74 |
| A43U U55A C70G U112A G113A | -3.91 |
| A43G G63A G77C A90G G127U G135C | -3.69 |
| A43U U78C G93A | -1.95 |

| Variant | polymerase ribozyme fitness (log ratio) |
| --- | --- |
| G44A A50U G60A U132C | -2.42 |
| A43G C56G G69U A108G C124A | -2.3 |
| A43U G69A | -5.69 |
| G44C U92G | -2.61 |
| G44A G117U | -3.1 |
| G44C G47U U81A | -4.12 |
| G44A G60U A108G | -2.88 |
| A43U U78G C85U G93A | -3.01 |
| A43U G47U G61A C72G C97U | -2.63 |
| A43U U78C | -1.53 |
| G44C C97G U112A | -4.06 |
| A43U U59G G110A | -5.07 |
| G44C G63A C85U G110C | -7.22 |
| G44C C56U | -0.735 |
| G44A C70G C101G C114U G128C | -6.56 |
| G44C G45U | -2.11 |
| G44C U55A A103U U130A | -5.8 |
| A43U U54A U112A | -0.639 |
| G44A A68G C70G C72A G110A G122A C124A | -7.69 |
| A43U U87G C102U | -5.04 |
| G44C G58C U59C U96A | -1.98 |
| A43U U59C | -1.99 |
| G44U C53A C56A A111C | -0.781 |
